Measurements from the supplement of paper PMC6757056.
± gives the standard deviation of the averaged measurements.

B1: library; a variant is named by its letters at N, in order (parent)
chain: GCUGUCACCGAGAAACUGUGAAGUAUAUCUUAAACCUGGGCACUUAAAAGAUAUAUGGAGUUAGUAGUGCAACCUGCUCGGUCUGAUGAGUCCNNNNNNGGACGAAACAGC

Key:
cyclic di-GMP [1] = variants of: B1; assay: normalized RNA/DNA level without ligand (relative to sTRSVctl = 100) (log10 (% of sTRSVctl)); HEK293T; ligand: cyclic di-GMP (c-di-GMP-II aptamer); higher = less ribozyme self-cleavage, higher mRNA level; details: reporter: mCherry (pCS4076), ligand present: no
In short: (§1)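 Ribozyme switch library plasmids with mCherry reporters (eGFP in certain ligand experiments) went into HEK293T cells at 4 µg per 6-well well. Where ligand was used, it was applied 1 h before transfection, and total RNA was extracted with EDTA 72 h later for reverse transcription, amplification, barcoding and sequencing. RNA level is the RNA-to-DNA read ratio normalized to a spiked-in non-cleaving sequence or to the leading sequences, then scaled and log-transformed. Scaling was ×100 with log10, the leading set comprised 25 sequences, and the cutoff was ≥100 DNA reads.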

cyclic di-GMP [2] = variants of: B1; assay: normalized RNA/DNA level with ligand (relative to sTRSVctl = 100) (log10 (% of sTRSVctl)); HEK293T; ligand: cyclic di-GMP (c-di-GMP-II aptamer); ligand concentration (+) RNA-Seq: 1 mM; higher = less ribozyme self-cleavage, higher mRNA level; details: reporter: mCherry (pCS4076), ligand present: yes
In short: as §1

For GCUGUCACCGAGAAACUGUGAAGUAUAUCUUAAACCUGGGCACUUAAAAGAUAUAUGGAGUUAGUAGUGCAACCUGCUCGGUCUGAUGAGUCCUACGGUGGACGAAACAGC [UACGGU], the “normalized RNA/DNA level without ligand (log10)” value (cyclic di-GMP [1]) was 1.6 ± 0.032 and the “normalized RNA/DNA level with ligand (log10)” value (cyclic di-GMP [2]) was 1.78 ± 0.098.

In the case of GCUGUCACCGAGAAACUGUGAAGUAUAUCUUAAACCUGGGCACUUAAAAGAUAUAUGGAGUUAGUAGUGCAACCUGCUCGGUCUGAUGAGUCCACUCAUGGACGAAACAGC [ACUCAU], the “normalized RNA/DNA level without ligand (log10)” value (cyclic di-GMP [1]) is reported as 1.61 ± 0.022 and the “normalized RNA/DNA level with ligand (log10)” value (cyclic di-GMP [2]) is reported as 1.81 ± 0.15.

In the case of GCUGUCACCGAGAAACUGUGAAGUAUAUCUUAAACCUGGGCACUUAAAAGAUAUAUGGAGUUAGUAGUGCAACCUGCUCGGUCUGAUGAGUCCAUCUCCGGACGAAACAGC [AUCUCC], the “normalized RNA/DNA level without ligand (log10)” value (cyclic di-GMP [1]) is reported as 1.806 ± 0.0081 and the “normalized RNA/DNA level with ligand (log10)” value (cyclic di-GMP [2]) is reported as 1.9 ± 0.034.

In the case of GCUGUCACCGAGAAACUGUGAAGUAUAUCUUAAACCUGGGCACUUAAAAGAUAUAUGGAGUUAGUAGUGCAACCUGCUCGGUCUGAUGAGUCCUUGAUUGGACGAAACAGC [UUGAUU], the “normalized RNA/DNA level without ligand (log10)” value (cyclic di-GMP [1]) is reported as 1.698 ± 0.016 and the “normalized RNA/DNA level with ligand (log10)” value (cyclic di-GMP [2]) is reported as 1.81 ± 0.083.

With GCUGUCACCGAGAAACUGUGAAGUAUAUCUUAAACCUGGGCACUUAAAAGAUAUAUGGAGUUAGUAGUGCAACCUGCUCGGUCUGAUGAGUCCCUUGUGGGACGAAACAGC [CUUGUG] the “normalized RNA/DNA level without ligand (log10)” value (cyclic di-GMP [1]) was 1.73 ± 0.03 and the “normalized RNA/DNA level with ligand (log10)” value (cyclic di-GMP [2]) was 1.91 ± 0.13.

For GCUGUCACCGAGAAACUGUGAAGUAUAUCUUAAACCUGGGCACUUAAAAGAUAUAUGGAGUUAGUAGUGCAACCUGCUCGGUCUGAUGAGUCCCGUGGUGGACGAAACAGC [CGUGGU], the “normalized RNA/DNA level without ligand (log10)” value (cyclic di-GMP [1]) was 1.74 ± 0.021 and the “normalized RNA/DNA level with ligand (log10)” value (cyclic di-GMP [2]) was 1.87 ± 0.076.

With GCUGUCACCGAGAAACUGUGAAGUAUAUCUUAAACCUGGGCACUUAAAAGAUAUAUGGAGUUAGUAGUGCAACCUGCUCGGUCUGAUGAGUCCCAUUCCGGACGAAACAGC [CAUUCC] the “normalized RNA/DNA level without ligand (log10)” value (cyclic di-GMP [1]) was 1.781 ± 0.0028 and the “normalized RNA/DNA level with ligand (log10)” value (cyclic di-GMP [2]) was 1.87 ± 0.041.

In the case of GCUGUCACCGAGAAACUGUGAAGUAUAUCUUAAACCUGGGCACUUAAAAGAUAUAUGGAGUUAGUAGUGCAACCUGCUCGGUCUGAUGAGUCCCGCUUCGGACGAAACAGC [CGCUUC], the “normalized RNA/DNA level without ligand (log10)” value (cyclic di-GMP [1]) is reported as 1.62 ± 0.051 and the “normalized RNA/DNA level with ligand (log10)” value (cyclic di-GMP [2]) is reported as 1.81 ± 0.081.

For GCUGUCACCGAGAAACUGUGAAGUAUAUCUUAAACCUGGGCACUUAAAAGAUAUAUGGAGUUAGUAGUGCAACCUGCUCGGUCUGAUGAGUCCGAGUGUGGACGAAACAGC [GAGUGU], the “normalized RNA/DNA level without ligand (log10)” value (cyclic di-GMP [1]) was 1.77 ± 0.049 and the “normalized RNA/DNA level with ligand (log10)” value (cyclic di-GMP [2]) was 1.89 ± 0.09.

With GCUGUCACCGAGAAACUGUGAAGUAUAUCUUAAACCUGGGCACUUAAAAGAUAUAUGGAGUUAGUAGUGCAACCUGCUCGGUCUGAUGAGUCCGCCAGCGGACGAAACAGC [GCCAGC] the “normalized RNA/DNA level without ligand (log10)” value (cyclic di-GMP [1]) was 1.67 ± 0.064 and the “normalized RNA/DNA level with ligand (log10)” value (cyclic di-GMP [2]) was 1.83 ± 0.18.

For GCUGUCACCGAGAAACUGUGAAGUAUAUCUUAAACCUGGGCACUUAAAAGAUAUAUGGAGUUAGUAGUGCAACCUGCUCGGUCUGAUGAGUCCCCACUCGGACGAAACAGC [CCACUC], the “normalized RNA/DNA level without ligand (log10)” value (cyclic di-GMP [1]) was 1.7 ± 0.022 and the “normalized RNA/DNA level with ligand (log10)” value (cyclic di-GMP [2]) was 1.8 ± 0.1.

GCUGUCACCGAGAAACUGUGAAGUAUAUCUUAAACCUGGGCACUUAAAAGAUAUAUGGAGUUAGUAGUGCAACCUGCUCGGUCUGAUGAGUCCGCCGUCGGACGAAACAGC [GCCGUC] was tested, and the “normalized RNA/DNA level without ligand (log10)” value (cyclic di-GMP [1]) was 1.54 ± 0.05 and the “normalized RNA/DNA level with ligand (log10)” value (cyclic di-GMP [2]) was 1.72 ± 0.12.

For GCUGUCACCGAGAAACUGUGAAGUAUAUCUUAAACCUGGGCACUUAAAAGAUAUAUGGAGUUAGUAGUGCAACCUGCUCGGUCUGAUGAGUCCCCCCGGGGACGAAACAGC [CCCCGG], the “normalized RNA/DNA level without ligand (log10)” value (cyclic di-GMP [1]) was 1.83 ± 0.049 and the “normalized RNA/DNA level with ligand (log10)” value (cyclic di-GMP [2]) was 1.94 ± 0.11.

GCUGUCACCGAGAAACUGUGAAGUAUAUCUUAAACCUGGGCACUUAAAAGAUAUAUGGAGUUAGUAGUGCAACCUGCUCGGUCUGAUGAGUCCAAUCGGGGACGAAACAGC [AAUCGG] was tested, and the “normalized RNA/DNA level without ligand (log10)” value (cyclic di-GMP [1]) was 1.6 ± 0.048 and the “normalized RNA/DNA level with ligand (log10)” value (cyclic di-GMP [2]) was 1.76 ± 0.12.

With GCUGUCACCGAGAAACUGUGAAGUAUAUCUUAAACCUGGGCACUUAAAAGAUAUAUGGAGUUAGUAGUGCAACCUGCUCGGUCUGAUGAGUCCCCUGCGGGACGAAACAGC [CCUGCG] the “normalized RNA/DNA level without ligand (log10)” value (cyclic di-GMP [1]) was 1.8 ± 0.026 and the “normalized RNA/DNA level with ligand (log10)” value (cyclic di-GMP [2]) was 1.88 ± 0.13.

In the case of GCUGUCACCGAGAAACUGUGAAGUAUAUCUUAAACCUGGGCACUUAAAAGAUAUAUGGAGUUAGUAGUGCAACCUGCUCGGUCUGAUGAGUCCUGCCGGGGACGAAACAGC [UGCCGG], the “normalized RNA/DNA level without ligand (log10)” value (cyclic di-GMP [1]) is reported as 1.75 ± 0.04 and the “normalized RNA/DNA level with ligand (log10)” value (cyclic di-GMP [2]) is reported as 1.86 ± 0.039.

In the case of GCUGUCACCGAGAAACUGUGAAGUAUAUCUUAAACCUGGGCACUUAAAAGAUAUAUGGAGUUAGUAGUGCAACCUGCUCGGUCUGAUGAGUCCUGCGACGGACGAAACAGC [UGCGAC], the “normalized RNA/DNA level without ligand (log10)” value (cyclic di-GMP [1]) is reported as 1.685 ± 0.016 and the “normalized RNA/DNA level with ligand (log10)” value (cyclic di-GMP [2]) is reported as 1.82 ± 0.08.

With GCUGUCACCGAGAAACUGUGAAGUAUAUCUUAAACCUGGGCACUUAAAAGAUAUAUGGAGUUAGUAGUGCAACCUGCUCGGUCUGAUGAGUCCGCUCAGGGACGAAACAGC [GCUCAG] the “normalized RNA/DNA level without ligand (log10)” value (cyclic di-GMP [1]) was 1.79 ± 0.081 and the “normalized RNA/DNA level with ligand (log10)” value (cyclic di-GMP [2]) was 1.87 ± 0.15.

In the case of GCUGUCACCGAGAAACUGUGAAGUAUAUCUUAAACCUGGGCACUUAAAAGAUAUAUGGAGUUAGUAGUGCAACCUGCUCGGUCUGAUGAGUCCGCCCCGGGACGAAACAGC [GCCCCG], the “normalized RNA/DNA level without ligand (log10)” value (cyclic di-GMP [1]) is reported as 1.799 ± 0.012 and the “normalized RNA/DNA level with ligand (log10)” value (cyclic di-GMP [2]) is reported as 1.84 ± 0.086.

For GCUGUCACCGAGAAACUGUGAAGUAUAUCUUAAACCUGGGCACUUAAAAGAUAUAUGGAGUUAGUAGUGCAACCUGCUCGGUCUGAUGAGUCCACGGACGGACGAAACAGC [ACGGAC], the “normalized RNA/DNA level without ligand (log10)” value (cyclic di-GMP [1]) was 1.52 ± 0.075 and the “normalized RNA/DNA level with ligand (log10)” value (cyclic di-GMP [2]) was 1.73 ± 0.09.

With GCUGUCACCGAGAAACUGUGAAGUAUAUCUUAAACCUGGGCACUUAAAAGAUAUAUGGAGUUAGUAGUGCAACCUGCUCGGUCUGAUGAGUCCAAACCUGGACGAAACAGC [AAACCU] the “normalized RNA/DNA level without ligand (log10)” value (cyclic di-GMP [1]) was 1.72 ± 0.018 and the “normalized RNA/DNA level with ligand (log10)” value (cyclic di-GMP [2]) was 1.84 ± 0.097.

GCUGUCACCGAGAAACUGUGAAGUAUAUCUUAAACCUGGGCACUUAAAAGAUAUAUGGAGUUAGUAGUGCAACCUGCUCGGUCUGAUGAGUCCCUGUGAGGACGAAACAGC [CUGUGA] was tested, and the “normalized RNA/DNA level without ligand (log10)” value (cyclic di-GMP [1]) was 1.54 ± 0.075 and the “normalized RNA/DNA level with ligand (log10)” value (cyclic di-GMP [2]) was 1.77 ± 0.081.

For GCUGUCACCGAGAAACUGUGAAGUAUAUCUUAAACCUGGGCACUUAAAAGAUAUAUGGAGUUAGUAGUGCAACCUGCUCGGUCUGAUGAGUCCCUUGCCGGACGAAACAGC [CUUGCC], the “normalized RNA/DNA level without ligand (log10)” value (cyclic di-GMP [1]) was 1.82 ± 0.019 and the “normalized RNA/DNA level with ligand (log10)” value (cyclic di-GMP [2]) was 1.9 ± 0.077.

In the case of GCUGUCACCGAGAAACUGUGAAGUAUAUCUUAAACCUGGGCACUUAAAAGAUAUAUGGAGUUAGUAGUGCAACCUGCUCGGUCUGAUGAGUCCAUACCAGGACGAAACAGC [AUACCA], the “normalized RNA/DNA level without ligand (log10)” value (cyclic di-GMP [1]) is reported as 1.663 ± 0.0032 and the “normalized RNA/DNA level with ligand (log10)” value (cyclic di-GMP [2]) is reported as 1.79 ± 0.11.

With GCUGUCACCGAGAAACUGUGAAGUAUAUCUUAAACCUGGGCACUUAAAAGAUAUAUGGAGUUAGUAGUGCAACCUGCUCGGUCUGAUGAGUCCGCAUGCGGACGAAACAGC [GCAUGC] the “normalized RNA/DNA level without ligand (log10)” value (cyclic di-GMP [1]) was 1.68 ± 0.026 and the “normalized RNA/DNA level with ligand (log10)” value (cyclic di-GMP [2]) was 1.81 ± 0.097.

For GCUGUCACCGAGAAACUGUGAAGUAUAUCUUAAACCUGGGCACUUAAAAGAUAUAUGGAGUUAGUAGUGCAACCUGCUCGGUCUGAUGAGUCCCGAUUGGGACGAAACAGC [CGAUUG], the “normalized RNA/DNA level without ligand (log10)” value (cyclic di-GMP [1]) was 1.7 ± 0.019 and the “normalized RNA/DNA level with ligand (log10)” value (cyclic di-GMP [2]) was 1.89 ± 0.03.
